The values that follow come from PMC8809517, “Cofactor-independent RNA editing by a synthetic S-type PPR protein”.

What all share (assay): high-throughput RNA pulldown from lysate on Ni-NTA beads; HRP: 50 mM Tris pH 8, 150 mM NaCl, 1 mM beta-mercaptoethanol, 50 ug/ml BSA, 3 ug/ml yeast RNA, 0.5% heparin; ITC and FP: Tris pH 8, 200 mM KCl, 5% glycerol; MST: 50 mM Tris pH 8, 200 mM NaCl, 1 mM DTT, BSA, heparin, 0.05% Tween 20
Common to all, as to settings: tags: N-terminal His-eGFP

Data set [1] has as its target T1, GFP-9S library array, motif 4 ND N98Y;D124Q (synthetic construct, N98Y;D124Q).
T1 chain: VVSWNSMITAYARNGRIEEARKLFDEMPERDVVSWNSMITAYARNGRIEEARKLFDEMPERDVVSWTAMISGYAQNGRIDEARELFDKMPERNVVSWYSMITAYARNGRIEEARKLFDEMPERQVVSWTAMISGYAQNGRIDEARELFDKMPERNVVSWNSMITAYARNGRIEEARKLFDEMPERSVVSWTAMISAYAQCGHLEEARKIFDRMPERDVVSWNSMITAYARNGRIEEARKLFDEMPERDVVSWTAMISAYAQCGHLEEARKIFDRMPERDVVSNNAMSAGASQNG

Data set [2] deals with T2, GFP-9S library array, motif 4 ND N98A;D124I (synthetic construct, N98A;D124I).
T2 chain: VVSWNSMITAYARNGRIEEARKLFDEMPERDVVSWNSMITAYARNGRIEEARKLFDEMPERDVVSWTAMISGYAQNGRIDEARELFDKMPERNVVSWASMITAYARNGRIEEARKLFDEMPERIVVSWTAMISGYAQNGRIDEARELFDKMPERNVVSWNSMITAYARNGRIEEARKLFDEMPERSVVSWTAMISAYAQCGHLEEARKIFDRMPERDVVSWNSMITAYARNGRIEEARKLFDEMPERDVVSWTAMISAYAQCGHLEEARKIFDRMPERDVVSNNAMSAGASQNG

Data set [3] has as its target T3, GFP-9S library array, motif 4 ND N98R;D124N (synthetic construct, N98R;D124N).
T3 chain: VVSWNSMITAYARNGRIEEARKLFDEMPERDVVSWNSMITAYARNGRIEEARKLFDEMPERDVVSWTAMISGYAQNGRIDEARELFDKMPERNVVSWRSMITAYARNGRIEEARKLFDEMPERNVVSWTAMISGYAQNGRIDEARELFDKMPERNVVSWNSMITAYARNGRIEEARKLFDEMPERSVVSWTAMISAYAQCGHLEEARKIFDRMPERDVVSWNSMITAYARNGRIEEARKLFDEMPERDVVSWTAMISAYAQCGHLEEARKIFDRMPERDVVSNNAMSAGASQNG

For data set [4], the target named is T4, GFP-9S library array, motif 4 ND N98G;D124V (synthetic construct, N98G;D124V).
T4 chain: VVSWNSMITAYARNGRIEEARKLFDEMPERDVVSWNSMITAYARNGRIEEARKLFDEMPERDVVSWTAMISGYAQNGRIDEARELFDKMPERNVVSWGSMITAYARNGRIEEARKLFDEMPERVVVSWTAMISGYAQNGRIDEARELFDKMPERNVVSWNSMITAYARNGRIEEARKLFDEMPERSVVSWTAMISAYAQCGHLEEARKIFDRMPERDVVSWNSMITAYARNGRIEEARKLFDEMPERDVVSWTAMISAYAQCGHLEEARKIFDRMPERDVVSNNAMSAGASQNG

Data set [5] deals with T5, GFP-9S library array, motif 4 ND N98K;D124P (synthetic construct, N98K;D124P).
T5 chain: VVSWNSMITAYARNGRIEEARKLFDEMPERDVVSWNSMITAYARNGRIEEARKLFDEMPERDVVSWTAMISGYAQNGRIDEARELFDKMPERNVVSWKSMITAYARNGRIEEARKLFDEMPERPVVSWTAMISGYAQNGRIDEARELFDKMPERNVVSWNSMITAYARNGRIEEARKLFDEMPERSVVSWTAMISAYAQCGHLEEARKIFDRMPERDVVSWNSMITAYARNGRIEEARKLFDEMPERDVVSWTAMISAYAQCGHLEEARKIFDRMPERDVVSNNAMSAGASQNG

Consider AUUAUACGUGA (ssRNA) [IR-rpoA-U], for which the dissociation constant (Kd) (in general, the concentration at which binding is half-saturated) in data set [1] (label: 5' IRDye 800CW) worked out at 103 nM; in data set [2] (label: 5' IRDye 800CW) it was 249 nM; in data set [3] (label: 5' IRDye 800CW), 95.9 nM; in data set [4] (label: 5' IRDye 800CW), 234 nM; in data set [5] (label: 5' IRDye 800CW), 76.4 nM.

AUUAGACGUGA (ssRNA) [Cy5-rpoA-G]: the dissociation constant Kd turned out to be 49.8 nM in data set [1] (label: 5' Cy5); 107 nM in data set [2] (label: 5' Cy5); 118 nM in data set [3] (label: 5' Cy5); 118 nM in data set [4] (label: 5' Cy5); 105 nM in data set [5] (label: 5' Cy5).

In the case of AUUACACGUGA (ssRNA) [Cy5-rpoA], the Kd in data set [1] (label: 5' Cy5) was 39.5 nM; in data set [2] (label: 5' Cy5), 103 nM; in data set [3] (label: 5' Cy5) it was 98 nM; in data set [4] (label: 5' Cy5), 119 nM; in data set [5] (label: 5' Cy5), 107 nM.

Regarding AUUAAACGUGA (ssRNA) [IR-rpoA-A], the equilibrium dissociation constant (Kd) stood at 162 nM in data set [1] (label: 5' IRDye 800CW); 203 nM in data set [2] (label: 5' IRDye 800CW); 200 nM in data set [3] (label: 5' IRDye 800CW); 313 nM in data set [4] (label: 5' IRDye 800CW); 194 nM in data set [5] (label: 5' IRDye 800CW).
